One molecule from patent publication US20140017790A1, “CONTROL AGENT FOR CONTROLLING UNDIFFERENTIATED STATE AND USE THEREOF” (RIKEN, priority 2011, published 2014) can be followed below.

The subject of test [1] is human iPS cells. The test is described as follows: qRT-PCR of undifferentiated marker genes, feeder free versus feeder culture of human iPS cells. The conditions noted are these: feeder free with CCL2 and LIF, no bFGF, relative to feeder conditions with bFGF. Type of test: cell-based. The procedure: Specifically, human iPS cells were cultured under feeder conditions where bFGF was added and the CCL2 was not added, and under feeder free conditions where bFGF was not added and the CCL2 and LIF were added. Total RNAs then were extracted, and the expressions of undifferentiated marker genes were examined by the qRT-PCR. The culture under the feeder conditions was carried out in the same manner as in Example 8. The culture under the feeder free conditions was carried out in the same manner as in Example 12. Then, assuming that the expression level under the feeder condition was 1, the relative value with respect to this value was calculated as the fold change in expression level under the feeder free conditions.
FIG. 21 is a graph showing the fold changes in the expression of the undifferentiated marker genes in the human iPS cells. The vertical axis indicates the fold change (-fold), and the horizontal axis indicates the examined undifferentiated marker genes. The open bars show the results obtained under the feeder free conditions, and the solid bars show the results obtained under the feeder conditions.

Test [2] concerns mouse iPS cells. The test is described as follows: flow cytometry analysis of Nanog-GFP positive cell population. The test is classed as cell-based. The procedure: In the present example, the above-described DMEM to which the LIF and mouse recombinant CCL2 (MCP-1, #479-JE-010, R&D Systems) had been added was used. In the medium, the final concentration of the LIF was set to 25 units/ml, and the concentration of the recombinant CCL2 was set to 500 ng/ml. The amount of the medium to be added to a 12-well dish was set to 1 ml per well. On the other hand, in a comparative example, the above-described DMEM containing the LIF but not containing the CCL2 was used. The final concentration of the LIF was set to 25 units/ml.
The mouse iPS cells cultured under feeder free conditions were cultured in the medium of the example and the medium of the comparative example, respectively. The mouse iPS cells were seeded in the 12-well dish at a density of 6×10^4 cells/well.
The flow cytometry analysis was carried out in the following manner. After the mouse iPS cells had been cultured in the above described manner, the cells were collected from the wells, and were suspended again in an ES medium containing 25 units/ml of LIF. As the ES medium, a DMEM (containing glucose at a high concentration and containing no sodium pyruvate) containing 15% FBS, 0.1 mmol/l NEAA, and 0.1 mmol/l 2-Mercaptoethanol was used. Then, this cell suspension was applied to a flow cytometer (trade name: BD FACSAria (registered trademark) II, Becton, Dickinson and Company), and analyzed in accordance with the protocol of the flow cytometer. At this time, as a cell population having pluripotency, i.e., undifferentiated cell population, a Nanog-GFP-positive region sorted out based on FITC-A>10^4 was monitored. The raw data was analyzed by a program (FlowJo, ver. 7), and plotted in the form of density plot. The iPS cells were produced from MEF of a modified mouse with a GFP protein being incorporated in the promoter region of the Nanog gene. Thus, when the cells expressed the Nanog gene, it means the cells were Nanog-GFP positive, so that the GFP was produced and this GFP was detected by the FACS. […]
(A flow cytometer gives signals particle by particle.)

B1: CCL2: mouse recombinant CCL2 (MCP-1, #479-JE-010, R&D Systems); in Examples 1, 3, 4(1), 5 mouse CCL2 (SEQ ID NO: 3) overexpressed from Ccl2 expression vector (protein, listed as Mus musculus)
chain: MQVPVMLLGLLFTVAGWSIHVLAQPDAVNAPLTCCYSFTSKMIPMSRLESYKRITSSRCPKEAVVFVTKLKREVCADPKKEWVQTYIKNLDRNQMRSEPTTLFKTASALRSSAPLNVKLTRKSEANASTTFSTTTSSTSVGVTSVTVN
Turning to B1, in test [1], the “expressions of the undifferentiated marker genes, fold change” value was “comparable”. The “proportion of the Nanog-GFP positive mouse iPS cells” value in test [2] (CCL2 500 ng/ml, LIF 25, 50, 100, 500 and 1000 units/ml, versus no CCL2) is reported as “increased”; in test [2] (recombinant CCL2 500 ng/ml + LIF 25 units/ml, feeder free, 24 hours, comparative medium (LIF only) 37.6%) it was 67.3%. Further, the “number of undifferentiated cells having pluripotency (Nanog-GFP positive)” value in test [2] (recombinant CCL2 500 ng/ml added to PI3K inhibitor 5 ng/ml + LIF 25 units/ml) was “further increase”.
